Source: US20200062827A1

Assays:
[1] = biological target: therapeutic human IgG1 (Bristol-Myers Squibb) (human); experiment: affinity precipitation: 5 mM C12-Z33 + 20 µM IgG1, 0.6 M Na2SO4, centrifugation, A280 of supernatant
[2] = biological target: therapeutic human IgG1 (Bristol-Myers Squibb) (human); experiment: ITC, 15 C, PBS pH 7.4, reported per IgG1
[3] = biological target: therapeutic human IgG1 (Bristol-Myers Squibb) (human); experiment: ITC, 15 C, PBS pH 7.4, reported per ligand

Substance | percent IgG1 removed from the supernatant [1] [%] | -TΔS° (kcal · mol^-1) [2] | ΔG° (kcal · mol^-1) [2] | ΔH° (kcal · mol^-1) [2] | -TΔS° (kcal · mol^-1) [3] | Kd [3] [nM] | ΔG° (kcal · mol^-1) [3] | ΔH° (kcal · mol^-1) [3]
C12-Z33 immuno-amphiphile (peptide) | > 60 |  |  |  |  |  |  | 
Z33 peptide |  | 43.4 | -10 | -53.4 | 13.6 | 60 | -9.5 | -23.1
